# From patent US20230416400A1 (published 2023)
# No end group written: not given here.
# T1: BRAF V600E peptide (biotinylated synthetic peptide including the amino acids of and surrounding the BRAF … (also: biotinylated (position not given here)))
# T1 peptide: GLATEKSRWSG
# What was measured:
# [1] = target: T1, BRAF V600E peptide (biotinylated …); assay: BLI
# [2] = target: BRAF in colorectal cancer specimens with V600E mutation status: negative (human) (UniProt P15056); assay: IHC, FLEX++ Dako OMNIS, CRC block 6 BRAF-, V600E mutation status negative
# [3] = target: BRAF in colorectal cancer specimens with V600E mutation status: negative (human) (UniProt P15056); assay: IHC, FLEX++ Dako OMNIS, CRC block 7 BRAF-, V600E mutation status negative
# [4] = target: BRAF in colorectal cancer specimens with V600E mutation status: negative (human) (UniProt P15056); assay: IHC, FLEX++ Dako OMNIS, CRC block 8 BRAF-, V600E mutation status negative
# [5] = target: BRAF in colorectal cancer specimens with V600E mutation status: negative (human) (UniProt P15056); assay: IHC, FLEX++ Dako OMNIS, CRC block 9 BRAF-, V600E mutation status negative
# [6] = target: BRAF in colorectal cancer specimens with V600E mutation status: negative (human) (UniProt P15056); assay: IHC, FLEX++ Dako OMNIS, CRC block BRAF- (slide 51), V600E mutation status negative; set-up: scale not given here
# [7] = target: BRAF in colorectal cancer specimens with V600E mutation status: negative (human) (UniProt P15056); assay: IHC, FLEX++ Dako OMNIS, CRC block BRAF- (slide 52), V600E mutation status negative
# [8] = target: BRAF in colorectal cancer specimens with V600E mutation status: negative (human) (UniProt P15056); assay: IHC, FLEX++ Dako OMNIS, CRC block 10 BRAF-, V600E mutation status negative (clinical status Equivocal/Negative)
Kd [1],Tumor cells staining intensity [2],Tumor cells staining intensity [3],Tumor cells staining intensity [4],Tumor cells staining intensity [5],Tumor cells staining intensity [6],Tumor cells staining intensity [7],Tumor cells staining intensity [8],Binder
5.05 pM,0.125,0.125,0,0.125,0.125,0.125,0.25,"chimeric BRAF V600E antibody (mouse variable domains, rabbit IgG heavy chain and rabbit kappa1 light chain constant domains; heavy chain SEQ ID NO:2 and light … (antibody, V domains shown) VH: QAYLQQSGAELVRPGASVKMSCKASGYTFTSYNMHWIKQTPRQGLEWIGAIYPGNGDTSYNQKFKGKATLTVDRSSNTAYMQLSSLTSEDSAVYFCARDGISPWGQGTLVTVSS VL: DIKMTQSPSSMYASLGERVTITCKASQDINRYLSWFQQKPGKSPKTLIYRANRVLDGVPSRFSGSGSGQDYSLTISSLESEDMGIYYCLHYDEYPYTYGGGTKLEIKG"
4.86 pM,–,–,–,–,–,–,–,"recombinant mouse anti-human BRAF V600E antibody (mouse IgG2a heavy chain, mouse kappa1 light chain) (antibody, V domains shown) VH: QAYLQQSGAELVRPGASVKMSCKASGYTFTSYNMHWIKQTPRQGLEWIGAIYPGNGDTSYNQKFKGKATLTVDRSSNTAYMQLSSLTSEDSAVYFCARDGISPWGQGTLVTVSS VL: DIKMTQSPSSMYASLGERVTITCKASQDINRYLSWFQQKPGKSPKTLIYRANRVLDGVPSRFSGSGSGQDYSLTISSLESEDMGIYYCLHYDEYPYTYGGGTKLEIK"
